Measurements published in patent publication US8257949B2, “Self-priming polysialyltransferase” (National Research Council of Canada, priority 2006, dated 2012).

Tests used:
Format in all cases: biochemical
[1] = Comparison of PST-16 and PST-17 sialic acid polymerization, CE analysis; settings: for formation of long sialic acid polymers: CE analysis; for amount of polysialic acid relative to all other sialylated species: Lac-FCHASE acceptor, FIG. 5
Excerpt: The dotted line represents PST-16; the solid line represents PST-17. Arrows indicate the positions of Lactose (lac), GD3, GQ4, and polysialylated products conjugated to more than four sialic acid residues. The amount of polysialic acid relative to all other sialylated species ([…] sialic acid moieties) is about 50% in for each reaction.
Sialylation of the starting material: (▪), +1 NeuAc; ( ? ), +2 NeuAc; (□), +3 NeuAc; ( ? ), 4 NeuAc; ( ? ), >4 NeuAc (▪). 6A is PST-16 with Lac-FCHASE substrate. 6B is PST-17 with Lac-FCHASE substrate. 6C is PST-16 with T-Ag-FCHASE substrate. 6D is PST-17 with T-Ag-FCHASE substrate.
A fusion of Cst-II from C. jejuni OH4384 and the E. coli PST protein (PST-16) was generated and compared to the and N. meningitidis fusion (PST-17). Enzymatic activities of the two fusion proteins were determined and compared. […] See, e.g., FIGS. 5 and 6.

[2] = Activity of self-priming poly-sialyltransferase proteins in E. coli supernatant or pellet, CE assay; set-up: Specific Activity: unit not given here; settings: for Activity / Specific Activity: 24 hour sample; for Percent GM3: FCHASE-GM3 found in the product
Protocol: The self-priming poly-sialyltransferase proteins were expressed in E. coli cells and growth conditions for optimal protein expression were determined. Similar results were obtained for all three fusions; therefore, results are shown only for the PST-17 fusion. Cells were grown at 20° C., 25° C. and 30° C. for four different time periods. Aliquots of 1.5 mL were harvested, sonicated, and then centrifuged at 10,000×g for 10 mm. Expression of the self-priming poly-sialytransferase proteins increased with time at all […] temperatures.
Enzymatic activities of the self-priming poly-sialytransferase proteins were confirmed. Only the 24 hour samples of FIG. 4 were assayed Assays were done using the following reaction mixture: 0.5 mM FCHASE-Lac, 50 mM NaHEPES pH 7.5, 10 mM MgCl2, 5 mM CMP-NeuAc and 50% volume bacterial supernatant or pellet Reactions were incubated at 37° C. for 10 min and analyzed by capillary electrophoresis. […] For example, in the PST-17 20° C. supernatant, 9% of the substrate is converted into product, but most product is FCHASE-GM3. In contrast, in the PST-21 20° C. supernatant, 7% of the substrate is converted into product with 68% FCHASE-GM3, the remaining products containing longer sialic acid polymers. […] The highest levels of activity are shown in bold font.

[3] = Poly-sialylation of glycopeptide acceptor by PST17, TLC and CE analysis
Protocol: The control reaction lacked CMP-sialic acid. […] Disialylated products and products with more than 45 sialic acid residues are indicated with arrows.
The poly-sialyltransferase of PST17 was tested using a partially glycosylated IFNα2b[GalNAc-Gal-NeuAc]-FCHASE glycopeptide. Assay conditions were as follows: 50 mM NaHEPES pH 7.5, 5 mM MnCl2, 5 mM MgCl2, 5 mM CMP-NeuAc, 0.0684 mM IFNα2b[GalNAc-Gal-NeuAc]-FCHASE glycopeptide. Reactions were incubated at 37° C. for 1 hour and 2 hours. […] After 1 hour incubation at 37° C. there is 49.9% conversion to sialylated product and after 2 hours there is 62.5% conversion to sialylated product. […] A glycopeptide acceptor was also a very good acceptor for the PST-17 fusion protein, and long PSA polymers could be seen in CE analysis of those reactions. (Data not shown.) The glyco-peptide acceptors, NH2-VGVT[GalNAc-α-]ETP-COOH (SEQ ID NO:32), were obtained from Sussex Research Laboratories (Ottawa, Canada) and then N-terminally labelled with FCHASE as described for the amino-phenyl glycosides.

[4] = PST-17 time course on disaccharide acceptor; settings: single addition of enzyme, fixed donor concentration
Protocol: A comparison of acceptors substrates was performed using Lactose, N-acetyllactosamine, and Gal-β-1,3-GalNAc-α (T-Ag) disaccharide acceptors. […] See, e.g., FIG. 7.

[5] = Polysialic acid synthesis, fusion protein versus mixture of unfused parent enzymes; settings: T-Ag-containing glycopeptides
Excerpt: FIG. 9 provides a comparison of polysialic acid synthesis activity using a mixture of unfused Cst-II and PST-13 enzymes or the PST-17 fusion enzyme. The sialic acid acceptor was the glycopeptide interferon α2b-[TAg]-FCHASE. FIG. 9A is the unfused enzyme mixture: CST-81 and PST-13. FIG. 9B is the PST-17 fusion enzyme. Figure legend: IFNα2b-[TAg]-FCHASE (Starting material) (▪); +1 NeuAc ( ? ); +2 NeuAc (□); +3 NeuAc ( ? ); +4 NeuAc ( ? ); >4 NeuAc (▪).
In order to evaluate whether the fusion protein functions more efficiency than the unfused parent enzymes mixed together, we performed experiments where we controlled the stoichiometry of the individual sialyltransferases. The stoichiometry of the mixtures was calculated using gel densitometry. Care was taken not to overload the gels so that the protein bands were not saturated. Gels were stained with SYPRO Orange and protein was quantitated with software provided with Imager system. Reactions contained 4 μM enzyme based on the percentage present in the separate preparations.
See, e.g., FIG. 9. Although less striking, similar results were obtained using a mono-sialylated T-Ag-glycopeptide (S-T-Ag-glycopeptide) acceptor also. See, e.g., FIG. 10.

B1: PST-17: truncated CstII from OH4384 fused to the Neisseria Pst, SEQ ID NO:2 (protein)
chain: MKKVIIAGNGPSLKEIDYSRLPNDFDVFRCNQFYFEDKYYLGKKCKAVFYNPSLFFEQYYTLKHLIQNQEYETELIMCSNYNQAHLENENFVKTFYDYFPDAHLGYDFFKQLKDFNAYFKFHEIYFNQRITSGVYMCAVAIALGYKEIYLSGIDFYQNGSSYAFDTKQKNLLKLAPNFKNDNSHYIGHSKNTDIKALEFLEKTYKIKLYCLCPNSLLANFIELAPNLNSNFIIQEKNNYTKDILIPSSEAYGKFSKNINFGGGHMLKKIKKALFQPKKFFQDSMWLTTSPFYLTPPRNNLFVISNLGQLNQVQSLIKIQKLTNNLLVILYTSKNLKMPKLVHQSANKNLFESIYLFELPRSPNNITPKKLLYIYRSYKKILNIIQPAHLYMLSFTGHYSYLISIAKKKNITTHLIDEGTGTYAPLLESFSYHPTKLERNLIGNNLNIKGYIDHFDILHVPFPEYAKKIFNAKKYNRFFAHAGGISINNNIANLQKKYQISKNDYIFVSQRYPISDDLYYKSIVEILNSISLQIKGKIFIKLHPKEMGNNYVMSLFLNMVEINPRLVVINEPPFLIEPLIYLTNPKGIIGLASSSLIYTPLLSPSTQCLSIGELIINLIQKYSMVENTEMIQEHLEIIKKFNFINILNDLNGVISNPLFKTEETFETLLKSAEFAYKSKNYFQAIFYWQLASKNNITLLGHKALWYYNALYNVKQIYKMEYSDIFYIDNISVDFHSKDKLTWEKIKHYYYFADNRIGRDR
formation of long sialic acid polymers [1]: formation of long polymers happens from the earliest time points | amount of polysialic acid relative to all other sialylated species [1]: about 50% | substrate converted into product ([2]; 20° C. supernatant, 37° C. for 10 min): 9% | Activity ([2]; 20° C., P (pellet)): 3.270 mU/mL | Specific Activity ([2]; 20° C., P (pellet)): 8.959 | Percent GM3 ([2]; 20° C., P (pellet)): 98% | Activity ([2]; 20° C., S (supernatant)): 5.570 mU/mL | Specific Activity ([2]; 20° C., S (supernatant)): 2.637 | Percent GM3 ([2]; 20° C., S (supernatant)): 88% | Activity ([2]; 25° C., P (pellet)): 9.329 mU/mL | Specific Activity ([2]; 25° C., P (pellet)): 11.945 | Percent GM3 ([2]; 25° C., P (pellet)): 59% | Activity ([2]; 25° C., S (supernatant)): 8.192 mU/mL | Specific Activity ([2]; 25° C., S (supernatant)): 3.378 | Percent GM3 ([2]; 25° C., S (supernatant)): 67% | Activity ([2]; 30° C., P (pellet)): 13.355 mU/mL | Specific Activity ([2]; 30° C., P (pellet)): 15.228 | Percent GM3 ([2]; 30° C., P (pellet)): 51% | Activity ([2]; 30° C., S (supernatant)): 3.976 mU/mL | Specific Activity ([2]; 30° C., S (supernatant)): 1.893 | Percent GM3 ([2]; 30° C., S (supernatant)): 58% | conversion to sialylated product ([3]; 1 hour incubation at 37° C.): 49.9% | conversion to sialylated product ([3]; 2 hours at 37° C.): 62.5% | sialic acid residues on products ([3]; CE analysis, FIG. 8): more than 45 | Lac-FCHASE consumed [4]: essentially all | T-Ag material consumed [4]: 72% | polysialic acid product relative to the combination of unfused parent enzymes [5]: four times as much | polysialic acid product (PSA) ([5]; 4 μM enzyme): 17%

B2: PST-16: fusion of Cst-II from C. jejuni OH4384 and the E. coli PST protein, SEQ ID NO: 15 (protein)
chain: MKKVIIAGNGPSLKEIDYSRLPNDFDVFRCNQFYFEDKYYLGKKCKAVFYNPSLFFEQYYTLKHLIQNQEYETELIMCSNYNQAHLENENFVKTFYDYFPDAHLGYDFFKQLKDFNAYFKFHEIYFNQRITSGVYMCAVAIALGYKEIYLSGIDFYQNGSSYAFDTKQKNLLKLAPNFKNDNSHYIGHSKNTDIKALEFLEKTYKIKLYCLCPNSLLANFIELAPNLNSNFIIQEKNNYTKDILIPSSEAYGKFSKNINFGGGHMIFDASLKKLRKLFVNPIGFFRDSWFFNSKNKAEELLSPLKIKSKNIFIISNLGQLKKAESFVQKFSKRSNYLIVLATEKNTEMPKIIVEQINNKLFSSYKVLFIPTFPNVFSLKKVIWFYNVYNYLVLNSKAKDAYFMSYAQHYAIFVYLFKKNNIRCSLIEEGTGTYKTEKENPVVNINFYSEIINSIILFHYPDLKFENVYGTYPILLKKKFNAQKFVEFKGAPSVKSSTRIDNVIHKYSITRDDIIYANQKYLIEHTLFADSLISILLRIDKPDNARIFIKPHPKEPKKNINAIQKAIKKAKCRDIILITEPDFLIEPVIKKAKIKHLIGLTSSSLVYAPLVSKRCQSYSIAPLMIKLCDNDKSQKGINTLRLHFDILKNFDNVKILSDDITSPSLHDKRIFLGE
consumption of the acceptor [1]: consumed completely | formation of long sialic acid polymers [1]: did not detect formation of long sialic acid polymers | amount of polysialic acid relative to all other sialylated species [1]: about 50%
